Legend:
[1] = molecular target: Ral∆N63CDP-CBM37, Ral∆N63CDP fused at its C-terminus to CBM37 of R. albus 8 Cel5G by a glycine linker (Ruminococcus albus 8); assay: SEC; Superdex 200 10/300 in Buffer G (50 mM HEPES-NaOH pH 8.0, 100 mM NaCl, 0.1 mM EDTA); native mass from a calibration curve of standard proteins
[2] = molecular target: Ruminococcus albus 8 cellodextrin phosphorylase (RalCDP) (Ruminococcus albus 8); assay: as above
[3] = molecular target: Ruminococcus albus 8 cellobiose phosphorylase (RalCBP) (Ruminococcus albus 8); assay: as above
RalCDP-CBM37 [4] = test system: T1, RalCDP-CBM37; assay: arsenolysis, glucose release, glucose oxidase-peroxidase, Michaelis-Menten fit; assay type: biochemical, Hominimerdicola alba; conditions: phosphorolysis direction measured as arsenolysis; arsenate as co-substrate; 50 mM sodium acetate pH 6.0, 45°C; read-out: K M (mM) (mg/mL)
T1 construct: CBM37 of R. albus 8 Cel5G fused by glycine linker (Gly X9) to C-terminus of full-length RalCDP in one polypeptide; His-tag kept; E. coli BL21 (DE3); homodimer

[5] = molecular target: RalCDP-CBM37, RalCDP fused at its C-terminus to CBM37 of R. albus 8 Cel5G by a glycine linker (Ruminococcus albus 8); assay: SEC; Superdex 200 10/300 in Buffer G (50 mM HEPES-NaOH pH 8.0, 100 mM NaCl, 0.1 mM EDTA); native mass from a calibration curve of standard proteins
RalCDP-CBM37 [6] = test system: T1, RalCDP-CBM37; assay: glucose release, glucose oxidase-peroxidase, Michaelis-Menten fit; assay type: biochemical, Hominimerdicola alba; conditions: phosphorolysis direction; Pi as co-substrate; 50 mM sodium acetate pH 6.0, 45°C; read-out: K M (mM) (mg/mL)
[7] = substrate: O=P(O)(O)O[C@H]1O[C@H](CO)[C@@H](O)[C@H](O)[C@H]1O; assay: Pi release, Malachite Green, Michaelis-Menten fit; assay type: biochemical, Hominimerdicola alba; conditions: synthesis direction (donor), co-substrate glucose, 100 mM sodium acetate pH 6.0, 45°C
Excerpt: Pi release, Malachite Green, Michaelis-Menten fit on RalCBP

purified protein = substrate: O=P(O)(O)O; assay: purified protein; conditions: phosphorolysis direction, co-substrate cellobiose, 50 mM sodium acetate pH 6.0, 45°C

Molecule: Ral∆N63CDP-CBM37, Ral∆N63CDP fused at its C-terminus to CBM37 of R. albus 8 Cel5G by a glycine linker (enzyme)
- stoichiometry N [1]: 5

Molecule: Ruminococcus albus 8 cellodextrin phosphorylase (RalCDP) (enzyme)
- stoichiometry N [2]: 2

Molecule: Ruminococcus albus 8 cellobiose phosphorylase (RalCBP) (enzyme)
- stoichiometry N [3]: 2

Molecule: OC[C@H]1O[C@@H](O[C@H]2[C@H](O)[C@@H](O)[C@H](O[C@H]3[C@H](O)[C@@H](O)[C@H](O[C@H]4[C@H](O)[C@@H](O)[C@H](O[C@H]5[C@H](O)[C@@H](O)C(O)O[C@@H]5CO)O[C@@H]4CO)O[C@@H]3CO)O[C@@H]2CO)[C@H](O)[C@@H](O)[C@@H]1O (some centres unmarked) [Cellopentaose]
- Km (RalCDP-CBM37 [4]): 0.14 ± 0.03 mM

Molecule: OC[C@H]1O[C@@H](O[C@H]2[C@H](O)[C@@H](O)[C@H](O[C@H]3[C@H](O)[C@@H](O)C(O)O[C@@H]3CO)O[C@@H]2CO)[C@H](O)[C@@H](O)[C@@H]1O (some centres unmarked) [Cellotriose]
- Km (RalCDP-CBM37 [4]): 2.2 ± 0.3 mM

Molecule: OC[C@H]1O[C@@H](O[C@H]2[C@H](O)[C@@H](O)[C@H](O[C@H]3[C@H](O)[C@@H](O)[C@H](O[C@H]4[C@H](O)[C@@H](O)C(O)O[C@@H]4CO)O[C@@H]3CO)O[C@@H]2CO)[C@H](O)[C@@H](O)[C@@H]1O (some centres unmarked) [Cellotetraose]
- Km (RalCDP-CBM37 [4]): 0.24 ± 0.06 mM

Molecule: RalCDP-CBM37, RalCDP fused at its C-terminus to CBM37 of R. albus 8 Cel5G by a glycine linker (enzyme)
- stoichiometry N [5]: 2

Molecule: OC[C@H]1O[C@@H](O[C@H]2[C@H](O)[C@@H](O)C(O)O[C@@H]2CO)[C@H](O)[C@@H](O)[C@@H]1O (some centres unmarked) [Cellobiose]
- Km (RalCDP-CBM37 [6]): 11 ± 2 mM

B1: RalCBP (Hominimerdicola alba 8) (protein)
chain: MKFGFFDDANKEYVITEPRTPYPWINYLGSQAFFSLISNTAGGYSFYKDARLRRITRYRYNNVPIDMGGRYFYINDNGTVWNPGWSPVKTELDAYTCRHGMGYTIIKGEKNGLEAEVTFFVPNNYNGEVQKVVLTNKSGAEKTFKLFSFAEWCLWDAQDDCTNFQRNFSTGRVEVDGSVIYHKTEYRDRRDHYAFYSVNDSIDGYDTDRDSFIGLYNGFNDPQAVMAGKANDSFADGWSPIASHYKEIKLGAGESKTLIFILGYVEMPVDQKFEADGKTINKVKAKAMMEQFDTPEKVDAGLAELKASWDKLLGILNVDTPDDKVDRMVNIWNQYQCMVTFNLSRSASYFESGIGRGMGFRDSNQDILGFVHQIPDRARERIIDIASTQLPDGGCYHQYQPLTKKGNSDIGGDFSDDPLWMILSVSAYIKETGDWGILDEMVPYDNDESKAQPMLDHLKVSFYHIVNNLGPHGLPLAMRADWNDCINLSCYSDTPGESFQTYTNPKFAAEGGYSKVAESVMVATLFTYTGPNYVAILKHLGKDDEAAAAQAEIDKMKKNVMASAWDGDWFLRAYDSEGKKMGSKECEEGQIFIEPQGFAIMSEIGKEQGADKKTLAAIDERLNTKFGLVLNNPAFTKYYIQYGEISTYPGGYKENAGIFTHNNAWIICAAAYAGQGDQAFKYYSEIAPAFTEETSDIHKTEPYVYGQMIGGKDAGSDIGRPGKNFGQGKNSWLTGTAAWNMVAISQYILGVQPDFDGLKIDPSIPAAWDGFNITRKFRGNTYNIAVKNPDHVCKGIKSVTVDGKKIDGIVMPVFEAGSVHEVEVVMG
notes: full length, His6-tag kept (methods: N-terminus; results: C-terminal), codon-optimized, E. coli BL21 (DE3); homodimer 180 kDa
- Km [7]: 2000 ± 200 µM
- kcat [7]: 178 ± 2 s⁻¹
- kcat/Km [7]: 89000 M⁻¹ s⁻¹
- Km (purified protein): 580 ± 20 µM
- kcat (purified protein): 284 s⁻¹
- kcat/Km (purified protein): 490000 M⁻¹ s⁻¹

Reference: article PMC10119399, “Insights to improve the activity of glycosyl phosphorylases from Ruminococcus albus 8 with cello-oligosaccharides” (Frontiers in Chemistry, 2023)
